{"source": "patent US20240101645A1", "about": "(HENRY M JACKSON FOUNDATION FOR THE ADVANCEMENT OF MILITARY …, published 2024)", "binders": {"B1": {"name": "COV_2063 (antibody, V domains shown)", "VH": "EVQLVESGGGVVQPGRSLRLSCAASGFTFSSYGMHWVRQAPGKGLEWVAVIWYDGSNKYYADSVKGRFTISRDNSKNTLYLQMNSLRAEDTAVYYCARGPLGSNYFNYDAFDIWGQGTMVTVSS", "VL": "DVVMTQSPLSLPVTLGQPASISCRSSQSLEYSDGNTYLNWFQQRPGQSPRRLIYKVSKRDSGVPDRFSGSGSGSDFTLKISRVEAEDVGVYYCMQGTHWPLTFGGGTKVEIK"}}, "target": "SARS-CoV-1 S on pseudovirions (Sino 1-11, 28 amino acid C-terminal deletion) (SARS-CoV-1, UniProt P59594 14-1227)", "test": "cell-based or functional assay"}
{"binder": "B1", "values": [{"measurement": "IC50, SARS-CoV-1 pseudotyped neutralization", "result": 0.095, "unit": "µg/mL"}]}
